Article PMC5974017, “Increased glutarate production by blocking the glutaryl-CoA dehydrogenation pathway and a catabolic pathway involving L-2-hydroxyglutarate” (Nature Communications, 2018)

Experiments:
O=C(O)CCCC(=O)O = test: Clark-type oxygen electrode, double-reciprocal plot; format: biochemical, Pseudomonas putida; settings: pH 6.7
Text: (§1) Clark-type oxygen electrode, double-reciprocal plot on CsiD

O=C(O)CCC(=O)C(=O)O = test: as above; format: biochemical, Pseudomonas putida; settings: pH 6.7
Text: as §1

LhgO [1] = molecular target: T1, LhgO (Pseudomonas putida, UniProt Q88IT9); test: oxygen electrode, stimulation of oxidase activity; format: biochemical; settings: enzyme preincubated with 50 μM FAD 1 h on ice; 5 mM L-2-HG, Tris-HCl pH 7.4, 30 °C
T1 construct: recombinant His-tagged from E. coli BL21(DE3), pETDuet-1; partly lost FAD on purification
T1 sequence (Q88IT9 1-416): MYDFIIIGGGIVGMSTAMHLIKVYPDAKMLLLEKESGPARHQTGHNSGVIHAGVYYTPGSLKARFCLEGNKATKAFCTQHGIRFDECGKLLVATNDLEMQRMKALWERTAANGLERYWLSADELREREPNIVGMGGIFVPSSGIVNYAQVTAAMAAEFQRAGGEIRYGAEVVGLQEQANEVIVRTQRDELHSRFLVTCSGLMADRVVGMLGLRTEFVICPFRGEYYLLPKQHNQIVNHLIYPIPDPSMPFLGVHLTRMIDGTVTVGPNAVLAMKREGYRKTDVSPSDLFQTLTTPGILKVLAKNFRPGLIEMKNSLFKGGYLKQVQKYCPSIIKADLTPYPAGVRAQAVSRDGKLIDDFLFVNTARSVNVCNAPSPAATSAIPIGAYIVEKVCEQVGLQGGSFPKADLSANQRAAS

[2] = molecular target: T2, CsiD homolog from E. coli K-12 MG1655 (Escherichia coli, UniProt P76621); test: glutarate hydroxylation by purified homolog; format: biochemical; settings: co-substrate 2-KG
T2 construct: gene glaH; recombinant from E. coli BL21(DE3), pETDuet-1, HisTrap purified
T2 sequence (P76621 whole entry): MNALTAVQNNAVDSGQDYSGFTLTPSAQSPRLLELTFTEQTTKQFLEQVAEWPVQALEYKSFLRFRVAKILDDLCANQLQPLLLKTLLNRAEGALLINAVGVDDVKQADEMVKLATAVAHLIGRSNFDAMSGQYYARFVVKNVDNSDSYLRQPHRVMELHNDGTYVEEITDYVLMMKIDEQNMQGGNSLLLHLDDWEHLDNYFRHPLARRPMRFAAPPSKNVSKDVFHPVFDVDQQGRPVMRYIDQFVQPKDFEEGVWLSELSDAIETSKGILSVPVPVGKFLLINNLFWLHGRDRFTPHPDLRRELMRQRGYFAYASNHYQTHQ

[3] = molecular target: T3, CsiD homolog from Klebsiella pneumoniae ATCC25955 (Klebsiella pneumoniae, UniProt A6T540); test: glutarate hydroxylation by purified homolog; format: biochemical; settings: co-substrate 2-KG
T3 construct: recombinant from E. coli BL21(DE3), pETDuet-1, HisTrap purified
T3 sequence (A6T540 entry or part of it): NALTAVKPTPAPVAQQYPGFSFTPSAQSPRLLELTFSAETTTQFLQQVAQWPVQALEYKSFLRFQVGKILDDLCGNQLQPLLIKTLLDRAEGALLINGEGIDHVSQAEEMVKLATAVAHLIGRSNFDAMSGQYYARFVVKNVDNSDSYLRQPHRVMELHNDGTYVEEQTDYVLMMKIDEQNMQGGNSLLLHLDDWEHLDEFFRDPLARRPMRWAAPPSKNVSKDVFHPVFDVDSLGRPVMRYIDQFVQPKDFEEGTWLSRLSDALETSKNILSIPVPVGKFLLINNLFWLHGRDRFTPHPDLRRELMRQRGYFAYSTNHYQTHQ

LhgO [4] = molecular target: T1, LhgO; test: DCPIP reduction at […] nm; product 2-KG by HPLC and LC-MS/MS; format: biochemical; settings: 50 mM Tris-HCl pH 7.4, 30 °C, 5 mM L-2-HG, 0.1 mM DCPIP
YgaF = molecular target: T4, YgaF (Escherichia coli, UniProt P37339); test: L-2-HG oxidation to 2-KG; oxygen electrode; format: biochemical; settings: 50 mM Tris-HCl pH 7.4, 30 °C, 5 mM L-2-HG
T4 construct: gene lhgD; recombinant from E. coli BL21(DE3), pETDuet-1, HisTrap purified
T4 sequence (P37339 1-422): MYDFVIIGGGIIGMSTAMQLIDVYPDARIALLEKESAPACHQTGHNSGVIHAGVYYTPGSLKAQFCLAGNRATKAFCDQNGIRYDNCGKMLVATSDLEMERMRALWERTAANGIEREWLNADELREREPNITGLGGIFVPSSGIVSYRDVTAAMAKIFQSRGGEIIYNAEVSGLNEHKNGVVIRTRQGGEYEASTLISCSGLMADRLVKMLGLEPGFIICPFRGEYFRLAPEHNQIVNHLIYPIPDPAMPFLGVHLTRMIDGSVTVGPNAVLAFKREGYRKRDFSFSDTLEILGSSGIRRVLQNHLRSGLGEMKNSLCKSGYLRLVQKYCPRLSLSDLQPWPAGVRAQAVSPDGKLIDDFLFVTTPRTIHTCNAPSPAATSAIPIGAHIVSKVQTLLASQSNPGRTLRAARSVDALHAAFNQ

[5] = molecular target: T5, LhgO homolog from Klebsiella pneumoniae ATCC25955 (Klebsiella pneumoniae, UniProt A6T539); test: L-2-HG oxidation to 2-KG; format: biochemical
T5 construct: gene ygaF; recombinant from E. coli BL21(DE3), pETDuet-1, HisTrap purified
T5 sequence (A6T539 entry or part of it): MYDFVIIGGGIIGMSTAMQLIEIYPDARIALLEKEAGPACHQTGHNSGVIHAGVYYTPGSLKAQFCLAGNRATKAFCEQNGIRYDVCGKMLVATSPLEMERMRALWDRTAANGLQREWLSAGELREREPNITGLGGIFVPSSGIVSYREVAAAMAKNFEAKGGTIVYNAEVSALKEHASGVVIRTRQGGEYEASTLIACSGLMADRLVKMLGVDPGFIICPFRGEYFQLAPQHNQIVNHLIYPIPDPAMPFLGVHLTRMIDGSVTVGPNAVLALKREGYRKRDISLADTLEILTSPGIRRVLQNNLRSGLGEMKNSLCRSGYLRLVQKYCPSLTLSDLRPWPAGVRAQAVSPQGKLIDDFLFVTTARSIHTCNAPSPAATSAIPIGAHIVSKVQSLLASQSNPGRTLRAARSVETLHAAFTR

[6] = molecular target: the molecule itself; test: SEC; Superdex 200 10/300 GL, eluent buffer C (50 mM sodium phosphate, 150 mM sodium chloride, pH 7.2), flow 0.5 mL min^-1; calibrated with thyroglobulin, ferritin, aldolase, conalbumin, ovalbumin and RNase A; native mass divided by the calculated monomer mass of 38.9 kDa

Molecule: CsiD (Pseudomonas putida KT2440)
- Km (O=C(O)CCCC(=O)O): 145.67 ± 1.53 µM
- Vmax (O=C(O)CCCC(=O)O): 264 µmol/min/mg
- kcat/Km (O=C(O)CCCC(=O)O): 6.93e+06 ± 30000 M⁻¹ s⁻¹
- Km (O=C(O)CCC(=O)C(=O)O): 95.33 ± 0.97 µM
- Vmax (O=C(O)CCC(=O)C(=O)O): 144 µmol/min/mg
- kcat/Km (O=C(O)CCC(=O)C(=O)O): 7.49e+06 ± 120000 M⁻¹ s⁻¹

Molecule: Cc1cc2nc3c(=O)[nH]c(=O)nc-3n(C[C@H](O)[C@H](O)[C@H](O)COP(=O)(O)OP(=O)(O)OC[C@H]3O[C@@H](n4cnc5c(N)ncnc54)[C@H](O)[C@@H]3O)c2cc1C [FAD]
- oxygen electrode, stimulation of oxidase activity (LhgO [1]): The oxidase activity of LhgO can be stimulated by FAD

Molecule: O=C(O)CCCC(=O)O [glutarate]
- glutarate hydroxylation by purified homolog [2]: All three homologs of CsiD can catalyze the hydroxylation of glutarate
- glutarate hydroxylation by purified homolog [3]: All three homologs of CsiD can catalyze the hydroxylation of glutarate

Molecule: O=C(O)CC[C@H](O)C(=O)O [L-2-HG]
- DCPIP reduction at 600 nm; product 2-KG by HPLC and LC-MS/MS (LhgO [4]): Robust activity was detected only when L-2-HG was used as the substrate
- L-2-HG oxidation to 2-KG; oxygen electrode (YgaF): the homologs of LhgO can catalyze L-2-HG to produce 2-KG
- L-2-HG oxidation to 2-KG [5]: the homologs of LhgO can catalyze L-2-HG to produce 2-KG

B1: CsiD of P. putida KT2440, glutarate hydroxylase (enzyme, Pseudomonas putida KT2440, UniProt Q88IU0 1-325, looked up)
chain: MNAFTQIDELVMPLPLEPQGYTIAPSKQSPRLLELTFARETVEAFVQAVAQWPVQALEYKSFLRFRVGEILDELCQGTLRPVLLNTILDRATGGMLITPIGLDDVSQAEDMVKFTTACAHLIGRSNYDAMSGQFYARFVVVNSDNSDSYLRQPHRVMELHNDGTFVNQITDYVLMLKIDEKNMEGGNSLLLHLDDWEQCEAFFRHPLARREMRWTAPPSKKVAEDVFHSVFDTDAEGRPTMRYIDQFVQPENYEEGIWLNALSESLEGSGKKVSVPVGVGSFLLINNLFWLHGRDRFTPHEGLRRELMRQRGYVAFPKPLYQRGQ
notes: CsiD (glutarate hydroxylase) of Pseudomonas putida KT2440, locus PP2909; gene amplified from genomic DNA with primers csiD-F/csiD-R and cloned EcoRI/HindIII into pETDuet-1; also called PP2909; Fe2+/2-KG-dependent glutarate hydroxylase; source: E. coli BL21(DE3) harboring pETDuet-csiD, purified (HisTrap HP column)
- stoichiometry N [6]: 8
